Data from US20170166631A1 (NEURIMMUNE, published 2017).

Assays:
[1] = target: T1, GST-HttExon1Q21 (recombinant huntingtin exon 1 protein with 21 polyQ repeats fused to an N-terminal GST tag) (human, UniProt P08515 1-218 = GST; P42858 1-88); assay: direct ELISA
T1 construct: Expressed in E. coli BL21; also called GST-HD21; soluble GST-HD21; not shown: PreScission cleavage site

[2] = target: T2, HD21 (huntingtin exon 1 protein with 21 polyQ repeats after cleavage of the GST tag; aggregation reaction) (human, UniProt P42858 1-88); assay: direct ELISA, antigen coated at 5 ug/ml
T2 construct: domain: Exon1; Residues left by the protease site are not described; Aggregated preparation or time-resolved aggregation reaction; also called aggregated HD21; HttExon1Q21
T2 sequence (P42858 1-88 limits assumed, change not shown): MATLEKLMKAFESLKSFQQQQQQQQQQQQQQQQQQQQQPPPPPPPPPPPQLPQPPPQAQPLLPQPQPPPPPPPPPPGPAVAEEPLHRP

[3] = target: T1, GST-HttExon1Q21 (recombinant huntingtin …); assay: direct ELISA, antigen coated at 5 ug/ml
[4] = target: T3, HD35 (huntingtin exon 1 protein with 35 polyQ repeats after cleavage of the GST tag; aggregation reaction) (human, UniProt P42858 1-88); assay: filter retardation assay (SDS stable aggregates)
T3 construct: domain: Exon1; Residues left by the protease site are not described; Time-resolved aggregation reaction; also called HD35 aggregates; HttExon1Q35
T3 sequence (P42858 other isoform, or with tags, fused parts or gaps limits assumed): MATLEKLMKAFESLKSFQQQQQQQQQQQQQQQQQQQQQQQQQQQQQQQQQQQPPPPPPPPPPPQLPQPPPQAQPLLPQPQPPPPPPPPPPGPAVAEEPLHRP

[5] = target: T2, HD21 (huntingtin exon 1 protein with 21 …); assay: direct ELISA (Example 25, FIG. 20)
[6] = target: T4, HD49 (huntingtin exon 1 protein with 49 polyQ repeats after cleavage of the GST tag; aggregation reaction) (human, UniProt P42858 1-88); assay: direct ELISA; reference HD21; aggregated or GST-fused form not said
T4 construct: domain: Exon1; Residues left by the protease site are not described; Aggregated preparation or time-resolved aggregation reaction; also called aggregated HD49; aggregated HTT Exon1 HD49
T4 sequence (P42858 other isoform, or with tags, fused parts or gaps limits assumed): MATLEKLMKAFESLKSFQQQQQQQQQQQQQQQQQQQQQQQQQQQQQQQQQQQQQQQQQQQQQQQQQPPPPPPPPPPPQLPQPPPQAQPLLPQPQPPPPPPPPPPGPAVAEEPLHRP

T1 sequence (P08515 1-218, tags or fused parts left off): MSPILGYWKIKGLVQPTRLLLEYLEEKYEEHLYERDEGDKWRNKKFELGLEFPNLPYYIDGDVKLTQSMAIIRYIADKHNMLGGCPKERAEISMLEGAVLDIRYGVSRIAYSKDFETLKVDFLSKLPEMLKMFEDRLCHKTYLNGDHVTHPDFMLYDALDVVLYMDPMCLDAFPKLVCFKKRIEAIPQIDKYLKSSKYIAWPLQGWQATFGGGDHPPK

| Binder | binding result [3] | also measured |
| --- | --- | --- |
| NI-302.15E8 (antibody, V domains shown, also called anti-N-terminal domain antibody) VH: EVQLVESGGGLIQPGGSLRLSCAVSGFTVSSYSMNWVRQAPGKGLEWVSYTSSSRSNTKKYADSVKGRFTISRDNARNSLYLQMNSLRDEDTAVYYCARAGDFGELLTGEGYYGMDVWGQGTTVTVSS VL: SYELTQPPSVSVSPGQTATITCSGDELGDKYVGWYQQKPGQSPLLVIYQDAKRPSGIPERFSGSNSGNTATLTISGTQAMDEADYYCQAWDSGTMVFGGGTRLTVL |  | binding result [1]: binds; binding result [2]: binds |
| NI-302.7D8 (antibody, V domains shown, also called anti-poly Q/P domain antibody) VH: QVQLVQSGSELKKPGASVKVSCKASGYNFNNYAINWLRQAPGQGLEWMGWINTITGHPTYAQGFKGRFVFSLDTSVSTAYLQISSLKPEDTAVYYCARTYSNYGEFDYWGQGTLVTVSS VL: QSALTQPASVSGSRGQSITISCTGTSSDVGSYNLVSWYQQYPGKAPKLIIHEGSERPSGVSNRFSGSKSGNTASLTISGLQAEDEADYYCCSYAGTTTFVLFGGGTKLTVL | binds |  |
| NI-302.33C11 (antibody, V domains shown, also called anti-polyP domain antibody) VH: EVQLVESGGGVVQPGNSLRLSCAASGFRFSDFGMHWVRQAPGKGLEWLALIWYDGGYKYYADSVKGRFTISRDNSKNTMFLQMNSLRAEDTAVYYCATHLEYCSRTTCYLGHWGQGTLVTVSS VL: DIQLTQSPSFLSASVGDTVTFTCRASQGISDYLAWFQQKPGIAPKLLIYAASTLQTGVPSRFSGSGSGTEFTLTIRSLQSEDFGTYYCQQLKTYPYTFGQGTKVEIK |  | EC50 [3]: ~0.1 nM |
| NI-302.64E5 (antibody, V domains shown) VH: EVQLVETGGGLVKPGGSLRLSCAASGFTFDQAWMSWVRQVPGKGLEWVGRIKTKTEGEATDYAAPVRGRFTISRDDSEDTVFLQMNSLKTEDTALYYCTSTGVLAAAVDVYWGQGTLVTVSS VL: DIQLTQSPDSLAVSLGERATMTCKSSQSLFYSYNNENYLAWYQQRPGQPPKLLIYWASTRESGVPDRFSGSGSGTDFTLTISSLQAEDVAVYYCQQYYSTPQTFGQGTKVDIK | binds |  |
| NI-302.37C12 (antibody, V domains shown) VH: EVQLVESGGGLVQPGGSLRLSCVASALTVTNSQMTWVRRAPGRGLEWVSVIYTSGSAYYADSVKGRFTISRDNSKNTVFLQMNSLRVEDTAVYYCAKGPSAYYYGLDLWGQGTTVTVSS VL: not shown | binds | binding result [4]: no binding (tested: 0.2 µg/ml primary antibody) |
| NI-302.55D8 (antibody, V domains shown) VH: QVQLVQSGSEVKKPGASVKVSCKASGYTFTDYYIHWVRQAPGQGLEWMGRINPNNGGTNYAQNFQGWVTMTRDTSISTAYMELSRLRSDDTAVYYCARVGGELLREGGYHYYMDVWGKGTTVTVSS VL: QSVLTQPPSVSGAPGQRVTISCTGNSSNIGAGYDVHWYQQLPGTAPKLLIFDNTNRPSGVPDRFSGSKSGTSASLAITGLQAEDEANYHCQSYDNSLSGSWVFGGGTKLTVL | binds |  |
| NI-302.11A4 (antibody, V domains shown) VH: EVQLVESGGGLIQPGGSLRLSCAASGFPVSSSYMSWVRQAPGEGLEWVSVLYRDGDTYYADSVQGRFTISRDNSQNTFYLQMNSLKAEDTAVYYCAGDRRSSHYYYGMDVWGQGTTVTVSS VL: EIVMTQSPGTLSLSPGERATLSCRASQSVSSSYFAWYQQKPGQAPRLLIYGTSRRATAIPDRFSGSGSGTDFTLTISRLEPEDFAVYYCQQYGSSWTFGPGTKVEIK | binds |  |
| NI-302.22H9 (antibody, V domains shown) VH: EVQLVESGGGLVHPWGSLRVSCAASGFSVSNYAITWVRQAPGKGLEYISVIYRDGRTYYGDSVRGRFTISRDDSKNTIYLQMNSLRFEDTAVYYCARAHGQYYYGVDVWGQGTTVTVSS VL: DVVMTQSPLSLSVSPGEPASISCRSSQSLLHSNGYNYLDWYRQKPGQSPQLLIYLNSNRASGVPDRFSGSGSGTEFTLTISRVEAEDVGVYYCMQSLQTFTFGGGTKVEIK | binds |  |
| NI-302.74C11 (antibody, V domains shown) VH: EVQLVQSGTEVQKPGASVKVSCKASGYSFTGYFLHWVRQAPGQGLEWMGWINPNSGDTNYAEKFRGRIIMTRDTSVSTAHMELSSLRFDDTALYYCTREAPDPGAETDVWGQGTTVTVSS VL: QSVLTQPPSVSVSPGQTARITCSGDAVPKQYIYWYQQKPGQAPILVIYKDTQRPSGIPERFSGSNSGTTVTLTITGVQADDEGDYYCQSADSSATWVFGGGTKLTVL | binds | binding result [2]: binds |
| NI-302.71F6 (antibody, V domains shown) VH: QVQLQQWGAGLLKPSETLSLTCAVYGGSLSGYYWSWIRQPPGKGLEWIGEVNHSGGTNLNSSLKSRVIISVDKSKKQFSLKLSSVTAADTAMYFCARGYSYDPKYYFDSWSQGTLVTVSS VL: QSALTQPASVSGSPGQAITISCTGTSSDIGSYDFVSWYQQDPGKAPKVIIYGVNKRPSGVSNRFSGSKSGNTASLTISGLQADDEADYYCCSYAGSTTWVFGGGTKLTVL | binds | binding result [2]: binds |
| NI-302.4A6 (antibody, V domains shown) VH: EVQLVESGGGLVQPGGSLRLSCAASGFTFSAYAMSWVRQAPGKGLEWVSTISGSGGSTYYADSVKGRFSISRDNSKNTLYLQMNSLRAEDTAVYFCAKVTTELYGANSYYYYMDVWGKGTTVTVSS VL: EIVLTQSPGTLSLSPGERATLSCRASQSVVSRYLAWYQQKPGQAPRLLIYGASSRATGIPDRFSGSGSGTDFTLTISRLEPEDFAMYYCQLYGNSQTFGQGTKVEIK | binds |  |
| NI-302.8M1 (antibody, V domains shown) VH: EVQLVQSGAEVKKPGASVKVSCKASGYTFTIYYMHWVRQAPGQGLEWMGGISPSGAHTMYAQNFQGRVTVTRDTSTSTVYMELSSLRSEDTAVYYCARGSTVTNYRPFDYWGQGTLVTVSS VL: DIQMTQSPSSLSASVGDRVTITCRASQDISNYLAWYQQKPGKVPKLLIFAASTLQSGVPSRFGGSGSGTDFTLTISSLQPEDVATYYCQNYNSGPPPFGPGTKVDIK | binds |  |
| NI-302.6N9 (antibody, human IgG1, V domains shown, Expressed as complete human IgG1) VH: EVQLVESGGDLVQPGGSLRLSCVVSGFTFSSYAMTWVRQAPGKGLAWVSTISATGGSTFYTDSVRGRFTISRDNSKNTLYLQMNSLRTDDTAIYYCVKDLFGVDTSYYGMDVWGQGTTVTVSS VL: EIVLTQSPGTLSLSPGERATLSCRPSQSVSGRYVAWYQQKPGQAPRLLFYAASNRAIGIPDRFSGSGSGTDFTLTISRLEPEDFAVYYCQHYGASSYTFGPGTKVDIK |  | binding result [5]: binds |
| NI-302.15F9 (antibody, human IgG1, V domains shown, Expressed as complete human IgG1) VH: EVQLVESGGGLVTPGGSLRLSCEASGFLFKNSSMNWVRQTPGKGLEWVSSIDTSATNYKYYADSVKGRFTISRDDATNSLYLQMNSLRADDTATYYCARGYYTPRDFDYWGQGTLVTVSS VL: DVVMTQSPQTLSVSLGQAASISCRSSQSLLYRDNNTYLNWFHQRPGQSPRRLIYRASDRDSGVPDRFSGGGSGTDFTLKISGVEAEDVGTYYCMQGTHWPRTFGQGTKVEIK |  | fold preference of HD49 vs. HD21 [6]: ~5 fold |
| NI-302.63F3 (antibody, V domains shown, also called anti-P-rich domain antibody; anti-proline-rich domain antibody) VH: QVQLVQSGSAFKKPGTSVKVSCKASGYTFETRSMNWVRQAPGQGLEYMGWINTNTGNRTYVQAFRGRFVFSLDTSVSTAYLQISNLKTEDTAVYYCARGAGGGYWFDSWGQGTLVTVSS VL: DIQMTQSPDSLAVSLGERATINCKSNQSLFYSSNNNNYLAWYQHKSGQPPKLLVYWGSTRESGVPDRFSGSGSGTDFTLTISSLQAEDVAIYYCHQYYHNPYTFGQGTKLEIK | binds | binding result [2]: binds |
| NI-302.35C1 (antibody, V domains shown, also called anti-C-terminal domain antibody) VH: EVQLVESGGNLVQPGGSLRLSCTASGFTFSITALSWVRQAPEKGPQWVSAITGNAYGTYYADSVKGRFTISRDNAKNTLYLQMNGLRAEDTAIYYCVKGIASDSSGYSAFWGPGTLVTVSS VL: EIVLTQSPATLSLSPGERATLSCRASQSVDNQFAWYQQKPGQAPRLLIYDASRRAPGIPDRFSGSGSGTDFTLTISSLEPEDFAIYYCQHRYTWLYTFGQGTRLEIK | binds |  |
| NI-302.44D7 (antibody, human IgG1, V domains shown, Expressed as complete human IgG1) VH: EVQLVQSGGGLVQPGGSLRLSCAASGFTFSSYAMSWVRQAPGKGLEWVSGIGYSDTSTYYADSVKGRFTVSRDISKNTLYLQMNSLRAEDTAVYYCAKGTRDYYGMDVWGQGTMVTVSS VL: QTVVTQEPSFSVSPGGTVTLTCGLSSGSVSTSYYPSWYQQTPGRAPRTLIYSTNTRSSGVPDRFSGSILGNKAALTITGAQADDESDYYCVLFMGSGIGVFGGGTRLTVL |  | binding result [4]: no binding (tested: 0.2 µg/ml primary antibody) |
